The target in the data set is GST-tagged active human MEK1, Q02750.

B1: GST-tagged inactive human ERK1 (protein)
chain: MAAAAAQGGGGGEPRRTEGVGPGVPGEVEMVKGQPFDVGPRYTQLQYIGEGAYGMVSSAYDHVRKTRVAIKKISPFEHQTYCQRTLREIQILLRFRHENVIGIRDILRASTLEAMRDVYIVQDLMETDLYKLLKSQQLSNDHICYFLYQILRGLKYIHSANVLHRDLKPSNLLINTTCDLKICDFGLARIADPEHDHTGFLTEYVATRWYRAPEIMLNSKGYTKSIDIWSVGCILAEMLSNRPIFPGKHYLDQLNHILGILGSPSQEDLNCIINMKARNYLQSLPSKTKVAWAKLFPKSDSKALDLLDRMLTFNPNKRITVEEALAHPYLEQYYDPTDEPVAEEPFTFAMELDDLPKERLKELIFQETARFQPGVLEAP
Take B1: the “in vitro HSF1 Ser326 phosphorylation by GST-MEK1 in the presence of inactive GST-ERK1, detected by immunoblotting” value is listed as “recombinant ERK1 proteins impeded in vitro HSF1 Ser326 phosphorylation by recombinant MEK1 proteins”.
